Test results as given in US20260273054A1 (published 2026).
Values belong to the binder of their own block, whether it stands above or below them.

Legend:
[1] = target: T1, EGFR wild type (L858) peptide on HLA-A*11:01 (human); assay: activation reporter or marker
T1 peptide: KITDFGLAKL

[2] = target: T2, EGFR wild type (L858) peptide on HLA-A*11:01 (human); assay: activation reporter or marker
T2 peptide: VKITDFGLAK

[3] = target: T3, EGFR wild type (L858) peptide on HLA-A*11:01 (human); assay: killing
T3 peptide: KITDFGLAK

[4] = target: T4, EGFR L858R peptide on HLA-A*11:01 (human); assay: killing
T4 peptide: KITDFGRAK

[5] = target: T5, EGFR L858R peptide on HLA-A*11:01 (human); assay: activation reporter or marker
T5 peptide: KITDFGRAKL

[6] = target: T3, EGFR wild type (L858) peptide on …; assay: activation reporter or marker
[7] = target: T4, EGFR L858R peptide on HLA-A*11:01; assay: activation reporter or marker

- binding result [1]: no recognition
- binding result [2]: no recognition
B1: 0013-TCR1 (TCR, V domains shown)
Valpha: QKEVEQNSGPLSVPEGAIASLNCTYSDRGSQSFFWYRQYSGKSPELIMSIYSNGDKEDGRFTAQLNKASQYVSLLIRDSQPSDSATYLCAVYNNNDMRFGAGTRLTVKP
Vbeta: GVSQTPSNKVTEKGKYVELRCDPISGHTALYWYRQSLGQGPEFLIYFQGTGAADDSGLPNDRFFAVRPEGSVSTLKIQRTERGDSAVYLCASSFLAGHLYTGELFFGEGSRLTVL
- binding result [3]: no recognition
- binding result [4]: recognises

- binding result [1]: no recognition
- binding result [2]: no recognition
- binding result [5]: no recognition
B2: 0013-TCR319 (TCR, V domains shown)
Valpha: QSVTQPDIHITVSEGASLELRCNYSYGATPYLFWYVQSPGQGLQLLLKYFSGDTLVQGIKGFEAEFKRSQSSFNLRKPSVHWSDAAEYFCAVGGGGADGLTFGKGTHLIIQP
Vbeta: DVKVTQSSRYLVKRTGEKVFLECVQDMDHENMFWYRQDPGLGLRLIYFSYDVKMKEKGDIPEGYSVSREKKERFSLILESASTNQTSMYLCATLWYRQGADGYTFGSGTRLTVV
- binding result [3]: no recognition
- binding result [4]: recognises

- binding result [1]: no recognition
- binding result [6]: no recognition
- binding result [2]: no recognition
- binding result [7]: recognises
- binding result [5]: no recognition
B3: 0013-TCR102 (TCR, V domains shown)
Valpha: VGLHLPTLSVQEGDNSIINCAYSNSASDYFIWYKQESGKGPQFIIDIRSNMDKRQGQRVTVLLNKTVKHLSLQIAATQPGDSAVYFCAETPDKLIFGTGTRLQVFP
Vbeta: DTGVSQDPRHKITKRGQNVTFRCDPISEHNRLYWYRQTLGQGPEFLTYFQNEAQLEKSRLLSDRFSAERPKGSFSTLEIQRTEQGDSAMYLCASSGGGDSPLHFGNGTRLTVT
